In publication PMC2782037 (The Journal of Biological Chemistry, 2009):

Target: Human FANCD2, non-tagged (human, UniProt Q9BXW9-2 1-1451)
Assay: co-IP

Human FANCD2, non-tagged, sequence (Q9BXW9 whole entry): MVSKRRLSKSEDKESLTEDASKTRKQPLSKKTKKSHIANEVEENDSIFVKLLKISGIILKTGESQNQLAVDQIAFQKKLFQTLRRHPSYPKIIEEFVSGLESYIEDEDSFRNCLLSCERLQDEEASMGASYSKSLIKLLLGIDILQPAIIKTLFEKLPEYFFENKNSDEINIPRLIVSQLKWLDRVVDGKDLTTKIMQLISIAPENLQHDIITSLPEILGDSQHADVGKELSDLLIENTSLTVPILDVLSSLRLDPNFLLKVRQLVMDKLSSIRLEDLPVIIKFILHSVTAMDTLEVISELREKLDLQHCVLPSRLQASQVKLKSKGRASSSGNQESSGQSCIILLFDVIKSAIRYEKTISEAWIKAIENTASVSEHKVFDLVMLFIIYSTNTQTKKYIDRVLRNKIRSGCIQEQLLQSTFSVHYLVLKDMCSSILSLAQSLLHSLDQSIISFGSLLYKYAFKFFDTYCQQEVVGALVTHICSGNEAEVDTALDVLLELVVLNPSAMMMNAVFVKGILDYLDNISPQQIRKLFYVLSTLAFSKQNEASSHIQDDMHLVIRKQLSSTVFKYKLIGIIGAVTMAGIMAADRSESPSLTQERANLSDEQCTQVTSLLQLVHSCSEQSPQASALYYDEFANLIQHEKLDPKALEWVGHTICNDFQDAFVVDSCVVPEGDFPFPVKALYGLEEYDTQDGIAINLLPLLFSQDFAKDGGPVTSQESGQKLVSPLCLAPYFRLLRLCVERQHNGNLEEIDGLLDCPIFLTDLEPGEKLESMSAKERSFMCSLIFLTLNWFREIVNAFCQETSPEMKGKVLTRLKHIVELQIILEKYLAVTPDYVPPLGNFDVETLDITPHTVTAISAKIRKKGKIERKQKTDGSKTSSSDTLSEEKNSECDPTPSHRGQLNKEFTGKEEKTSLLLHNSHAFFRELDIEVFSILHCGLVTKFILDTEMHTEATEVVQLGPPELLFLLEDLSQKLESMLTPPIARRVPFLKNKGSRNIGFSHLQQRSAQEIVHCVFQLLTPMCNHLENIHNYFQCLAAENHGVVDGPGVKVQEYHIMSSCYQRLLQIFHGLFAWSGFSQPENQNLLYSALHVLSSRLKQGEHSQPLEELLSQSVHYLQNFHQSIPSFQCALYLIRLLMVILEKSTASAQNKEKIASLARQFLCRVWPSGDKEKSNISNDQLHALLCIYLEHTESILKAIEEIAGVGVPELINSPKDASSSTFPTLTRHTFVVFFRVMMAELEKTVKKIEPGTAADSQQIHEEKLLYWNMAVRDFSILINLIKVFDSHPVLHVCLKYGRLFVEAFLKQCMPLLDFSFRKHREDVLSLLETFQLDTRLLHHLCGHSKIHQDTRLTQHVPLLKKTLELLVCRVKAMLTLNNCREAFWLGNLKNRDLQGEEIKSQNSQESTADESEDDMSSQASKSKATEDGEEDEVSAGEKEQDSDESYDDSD

| binding result | Binder |
| --- | --- |
| binds | FANCI-(1001–1328), hexahistidine-tagged (domain or fragment, human, UniProt Q9NVI1-3 1001-1328, looked up) PQFVQMLSWTSKICKENSREDALFCKSLMNLLFSLHVSYKSPVILLRDLSQDIHGHLGDIDQDVEVEKTNHFAIVNLRTAAPTVCLLVLSQAEKVLEEVDWLITKLKGQVSQETLSEEASSQATLPNQPVEKAIIMQLGTLLTFFHELVQTALPSGSCVDTLLKDLCKMYTTLTALVRYYLQVCQSSGGIPKNMEKLVKLSGSHLTPLCYSFISYVQNKSKSLNYTGEKKEKPAAVATAMARVLRETKPIPNLIFAIEQYEKFLIHLSKKSKVNLMQHMKLSTSRDFKIKGNILDMVLREDGEDENEEGTASEHGGQNKEPAKKKRKK |
| binds | FANCI-D1301A, hexahistidine-tagged (EDGE motif mutant) (natural protein, human, UniProt Q9NVI1-3 1-1328, looked up) MDQKILSLAAEKTADKLQEFLQTLREGDLTNLLQNQAVKGKVAGALLRAIFKGSPCSEEAGTLRRRKIYTCCIQLVESGDLQKEIASEIIGLLMLEAHHFPGPLLVELANEFISAVREGSLVNGKSLELLPIILTALATKKENLAYGKGVLSGEECKKQLINTLCSGRWDQQYVIQLTSMFKDVPLTAEEVEFVVEKALSMFSKMNLQEIPPLVYQLLVLSSKGSRKSVLEGIIAFFSALDKQHNEEQSGDELLDVVTVPSGELRHVEGTIILHIVFAIKLDYELGRELVKHLKVGQQGDSNNNLSPFSIALLLSVTRIQRFQDQVLDLLKTSVVKSFKDLQLLQGSKFLQNLVPHRSYVSTMILEVVKNSVHSWDHVTQGLVELGFILMDSYGPKKVLDGKTIETSPSLSRMPNQHACKLGANILLETFKIHEMIRQEILEQVLNRVVTRASSPISHFLDLLSNIVMYAPLVLQSCSSKVTEAFDYLSFLPLQTVQRLLKAVQPLLKVSMSMRDCLILVLRKAMFANQLDARKSAVAGFLLLLKNFKVLGSLSSSQCSQSLSVSQVHVDVHSHYNSVANETFCLEIMDSLRRCLSQQADVRLMLYEGFYDVLRRNSQLANSVMQTLLSQLKQFYEPKPDLLPPLKLEACILTQGDKISLQEPLDYLLCCIQHCLAWYKNTVIPLQQGEEEEEEEEAFYEDLDDILESITNRMIKSELEDFELDKSADFSQSTSIGIKNNICAFLVMGVCEVLIEYNFSISSFSKNRFEDILSLFMCYKKLSDILNEKAGKAKTKMANKTSDSLLSMKFVSSLLTALFRDSIQSHQESLSVLRSSNEFMRYAVNVALQKVQQLKETGHVSGPDGQNPEKIFQNLCDITRVLLWRYTSIPTSVEESGKKEKGKSISLLCLEGLQKIFSAVQQFYQPKIQQFLRALDVTDKEGEEREDADVSVTQRTAFQIRQFQRSLLNLLSSQEEDFNSKEALLLVTVLTSLSKLLEPSSPQFVQMLSWTSKICKENSREDALFCKSLMNLLFSLHVSYKSPVILLRDLSQDIHGHLGDIDQDVEVEKTNHFAIVNLRTAAPTVCLLVLSQAEKVLEEVDWLITKLKGQVSQETLSEEASSQATLPNQPVEKAIIMQLGTLLTFFHELVQTALPSGSCVDTLLKDLCKMYTTLTALVRYYLQVCQSSGGIPKNMEKLVKLSGSHLTPLCYSFISYVQNKSKSLNYTGEKKEKPAAVATAMARVLRETKPIPNLIFAIEQYEKFLIHLSKKSKVNLMQHMKLSTSRDFKIKGNILDMVLREAGEDENEEGTASEHGGQNKEPAKKKRKK |
